Reference: the RNAGym collection of RNA variant scans (doi:10.1093/nar/gkz1192)

B1: CPEB3 Ribozyme (parent)
chain: UAACAGGGGGCCACAGCAGAAGCGUUCACGUCGCAGCCCCUGUCAGAUUCUGGUGAAUCUGCGAAUUCUGCUGUAUAUCUC

Variants of: B1
Test: self-cleavage, relative activity (ratio to wild type); higher = more cleavage; in vitro, sequencing
Summary of the method: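 Libraries of CPEB3 self-cleaving ribozyme mutants came from rounds of error-prone PCR and carried barcodes, which DNA sequencing matched to variants. In vitro transcription used T7 RNA polymerase at 37°C for 5 hours, with a further 15 min in DNase I before EDTA stopped the reaction; the ribozymes cleaved during both steps. The RNA was reverse transcribed with template switching and sequenced on Illumina. Relative activity is the cleaved/total read fraction of a variant divided by that of the unmutated ribozyme, averaged over three batches with at least 5 reads.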

Variant | self-cleavage
UAACAGGUGGCCACAGCAGAAGCGUUCACGUCGCAGCCCCUGUCAGAUUCUGGUGAAUCUGCGAAUUCUGGUGUAUAUCUC | 0.07
UAACAGGUGGCCACAGCAGAAGCUUUCACGUCGCAGCCCCUGUCAGAUUCUGGUGAAUCUGCGAAUUCUGCUGUAUAUCUC | 0.13
UAACAGGUGGCCACAGCAGAAGCAUUCACGUCGCAGCCCCUGUCAGAUUCUGGUGAAUCUGCGAAUUCUGCUGUAUAUCUC | 0.16
UAACAGGCGGCCACAGCAGAAGCGUUCACGUCACAGCCCCUGUCAGAUUCUGGUGAAUCUGCGAAUUCUGCUGUAUAUCUC | 0.06
UAACAGGUGGCCACAGCAGAAGCGUUCACGUCUCAGCCCCUGUCAGAUUCUGGUGAAUCUGCGAAUUCUGCUGUAUAUCUC | 0.1
UAACAGGUGGCCACAGCAGAAGCGUUCACGUCACAGCCCCUGUCAGAUUCUGGUGAAUCUGCGAAUUCUGCUGUAUAUCUC | 0.08
UAACAGGUGGCCACAGCAGAAACGUUCACGUCGCAGCCCCUGUCAGAUUCUGGUGAAUCUGCGAAUUCUGCUGUAUAUCUC | 0.12
UAACAGGCGGCCACAGCAGAAGCGUUCACGUCGCAGCCCCUGUCAGAUUCUGGUGAAUCUGCGAAUUCUGCUGUACAUCUC | 0.4
UAACAGGCGGCCACAGCAGAAGCGUUCACGUCGCACCCCCUGUCAGAUUCUGGUGAAUCUGCGAAUUCUGCUGUAUAUCUC | 0.15
UAACAGGUGGCCACAGCAGAAGCGUUCACGUCGCAGCCCCUGUCAGAUUCUGGUGAAUCUGCGUAUUCUGCUGUAUAUCUC | 0.08
UAACAGGUGGCCACAGCAGAAGCGUUCACGUCGCAGCCCCUGUCAGAUUCUGGUGAAUCUGCGCAUUCUGCUGUAUAUCUC | 0.12
UAACAGGUGGCCACAGCAGAAGCGUUCACGUCGCAGCCCCUGUCAGAUUCUGGUGAAUCUGCGGAUUCUGCUGUAUAUCUC | 0.2
UAACAGGUGGCCACAGCAGAAGCGUUCACGUCGCAGUCCCUGUCAGAUUCUGGUGAAUCUGCGAAUUCUGCUGUAUAUCUC | 0.17
UAACAGGUGACCACAGCAGAAGCGUUCACGUCGCAGCCCCUGUCAGAUUCUGGUGAAUCUGCGAAUUCUGCUGUAUAUCUC | 0.39
UAACAGGUGGCCACAGCAGAAGCGUUCACGUCGCAGCCCCUGUCAGAUUCUGGUGAAUCUGCGAAUUCUGCUGUAUUUCUC | 0.14
UAACAGGUGGCCACAGCAGAAGCGUUCACGUCGCAGCCCCUGUCGGAUUCUGGUGAAUCUGCGAAUUCUGCUGUAUAUCUC | 0.14
UAACAGGCGGCCACAGCAGAAGCGUUCACGUCGCAGCCCCUGUCAGAUUCAGGUGAAUCUGCGAAUUCUGCUGUAUAUCUC | 0.12

Variant | self-cleavage
UAACAGGUGGCCACAGCAGAAGCGUUCACGUCGCAGCCCCUGUCAGAUUCUGGUGAAUCUGCGAGUUCUGCUGUAUAUCUC | 0.34
UAACAGGUGGCCACAGCAGAAGCGUUCACGUCGCAGCCCCUGUCAGAUUCUGGUGAAUCUGCGAUUUCUGCUGUAUAUCUC | 0.43
UAACAGGCGGCCACAGCAGAAGCGUUCACGUCGCAGCCCCUGUCAGAUUCUGGUGAAUCCGCGAAUUCUGCUGUAUAUCUC | 0.24
UAACAGGCGGCCACAGCAGAAGCGUUCACGUCGCAGCCCCUGUCAGAUUCUGGUGAAUCAGCGAAUUCUGCUGUAUAUCUC | 0.14
UAACAGGUGGCCACAGCAGAAGCGUUCACGUCGCAGCCCCUGUCAGAUUCUGGUGAAUCUGCGAAUUCUGCUGUGUAUCUC | 0.12
UAACAGGUGGCCACAGCAGAAGCGUUCACGUCGCAGCCCCUGUCAGAUUCUGGUGAAUCUGCGAAUUCUGCUGUUUAUCUC | 0.35
UAACAGGUGGCCUCAGCAGAAGCGUUCACGUCGCAGCCCCUGUCAGAUUCUGGUGAAUCUGCGAAUUCUGCUGUAUAUCUC | 0.3
UAACAGGUGGCCGCAGCAGAAGCGUUCACGUCGCAGCCCCUGUCAGAUUCUGGUGAAUCUGCGAAUUCUGCUGUAUAUCUC | 0.28
UAACAGGUGGCCACAGCAGAAGCGUUCACGUCGCUGCCCCUGUCAGAUUCUGGUGAAUCUGCGAAUUCUGCUGUAUAUCUC | 0.27
UAACAGGCGGCCACAGCAGAAGCGUUCACGUCGCAGCUCCUGUCAGAUUCUGGUGAAUCUGCGAAUUCUGCUGUAUAUCUC | 0.07
UAACAGGUGGCCACGGCAGAAGCGUUCACGUCGCAGCCCCUGUCAGAUUCUGGUGAAUCUGCGAAUUCUGCUGUAUAUCUC | 0.24
UAACAGGUGGCCACUGCAGAAGCGUUCACGUCGCAGCCCCUGUCAGAUUCUGGUGAAUCUGCGAAUUCUGCUGUAUAUCUC | 0.4
UAACAGGCGGCCACAGCAGAAGCGUUCACGUCGCAGCCCCUGCCAGAUUCUGGUGAAUCUGCGAAUUCUGCUGUAUAUCUC | 0.4
UAACAGGCGGCCACAGCAGAAGCGUUCACGUCGCAGCCCCUGUCAGAUUCUGGUGAAUCUGCGAACUCUGCUGUAUAUCUC | 0.41
UAACAGGCGGCCACAGCAGAAGCGUUCACGUCGCAGCCCUUGUCAGAUUCUGGUGAAUCUGCGAAUUCUGCUGUAUAUCUC | 0.13
UAACAGGUGGCCACAGCAGAAGCGUUCACGUCGCAGCUCCUGUCAGAUUCUGGUGAAUCUGCGAAUUCUGCUGUAUAUCUC | 0.04
UAACAGGUGGCCACAGCAGAAGCGUUCACGUUGCAGCCCCUGUCAGAUUCUGGUGAAUCUGCGAAUUCUGCUGUAUAUCUC | 0.14
